Drawing on the NTF2 design screens of Basanta et al. (2020), this text covers protease stability score for 47 sequences.

The data set can be described thus: protease stability score; higher = more stable; yeast display proteolysis, trypsin and chymotrypsin.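 Further: log10 excess protease needed over predicted unfolded state with 0 meaning unfolded.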
“DHEFAKDAKEVLEENDFEREKQLFDKDASAHIGNTTYHGHEHVQTAIDIRKKRIDHREFHSITIHGDKVDVDLIVQFNGRKIRFDLTIQVHNGRVKEIKFQATNPSQERQLDEIMS” registered a protease stability score of 1.12. “DEEDERRKVQDVAKAIKKGNEKELRKLADEDAKWRVGDTDLHGMERIQKDQATRRREVDNVEIKSVDVHNGRAHVTFVVNHNGKNVEVTNTADFKNGKVKNVQVDPSKVEELKK” gave a protease stability score of -0.328.

As to “DEEKHAKEMADRFRKILDNGNEHSVEKMFDENARMSVGDRTIHGREKIAKKLITDVRRVDHLQVKVLSYHAHGDKIDLKVQQTLVVNGEDETRRYQMHLTRVNGRFVAVDAREQ”, the protease stability score is -0.07.

For the sequence “DDEANTVFREQLHQLEEGNHKEVAKNFDPNVRVSVGDRSIHGSEEVNTRIRRQAHESRIQVDHMSDDNSNGRVTMSADQVVNENGKPSTHRYKLTARVHNGKVKSMVITRDG”, the protease stability score is -0.575. The figure for “DEEDIARQLAEDFRKVLENGDPDEMRKNADKDARLKVGDKQVHGRDEMVKYFEKLNKEYDRVHIHIKSVSAQGDKLRVEIQVVWNSNGKNDKTTYDLVFQHDDGHVKLLEIRES” is 0.539. “DEEQNEHFSKVLQHGDFDRLAELMDPNAKAEVGDKTVHGREEFQRWIEHFKRQVDHIQYDRIDYHGNEIHASVRVHVNGNTIEFNVSLEFKNGRVTSFMMKARTKDDEDELRRLQS”: the protease stability score came to 1.47. The figure for “DESLEDMARQLNTALQTNNPESVKEMFDKNARLEVGDKTWKGREHIDQWANRLRDEIRYEVRRFDLRVHGDKIEVNVHEEIQINGRPKSVSYSYTMRAHNGRIKHARYQPDPDAERRKKK” is 0.031; for “DEERVHQAVRIIKHNDPDKLRKLADPNAKFQVGDREIHGMEEYADIVAQIMEKADKITFTDIQVHNGRLTIEVVINVNGRNIQFQIFLEFHNGKLKHAHIQATSEEVQRQLNSLMG” it is 0.674. “DEENSKVYEEWLKAVHNGDPDQVRRQIDPNVKINVGEFDLKGRETVAEHVKKMKDEAHVDQDIHSIEIQGDKVRVDAQYSAEINGKPTSNHLDASVNVKNGQIKRVDVEFSK” displayed a protease stability score of -0.131. For “DEDADRKFQDMVENEHRGDNDKLKKMADKNVKFTVGDKSIHGMEDYATEVRKRKERSRVRYKDVRSNDHNGRVVVKFDAQRNHNGQPKDFHVTVHFRMENGKLKEMEVRTDQ”, the protease stability score came to 0.052. Under “DEEEAHKVQEAWKTGDPDHLRDLFDKDVRLVYGDQEVHGREELVKIFKKQQDQYDHQHIERVSLTGNRVEIRYKAVVNGQTVSRVIYIKIKNGRIKEMEIRATNPEELKEMYRLAS” stands 0.284; under “DSRAANLFSHAWKQVETGNNHNFRKLLDPNARRKVGDQTIDGREEMTEDNKRKRKEMHRTIETMSFEDHGDKAVFYMQYVVHHNGEPREIRNRVIIKVRGDRIKEVEVRKDG”, 0.006. The sequence “DESQLELVKELLDVLQTGNPDEARQLVDKDVNIRIGDRVIHGREQLQSHVEKVKREQQVHVNITDMKVKGDKIKVVAQYKNHHNGQPSHNKMVLDAEVNGDKIHRMEYKSQS” came in with a protease stability score of -0.453. As for “DEDQMEDLKRKWEKNDWRRFARNADPNVRVEVGDRRYHGRTDALRAMKIIEDTADRIQIDRVKSTNGKVTVDLVLVVNGNKIRARFEAVVHNGQVKHFTMKFRDKDDKRRFNEAMS”, the protease stability score stood at 0.582. As for “DEHVLELAKELFDALSFGSPEDVHRNADKNARFRIGDTEIKGMEQYVETVHKIKRELRLSITVKSMTAHNGDADIKADAVFNHNGTPRRVKIEVTMHVHNGKAVSVDIQFRK”, the protease stability score amounted to 0.848.

For the sequence “DEDARKLAEELLKAQETGDPKTLKRLVDPNVKVDVGDKTFHGMDEINEEVTRTKRRQRVKIDRVSIHVRGDSVVIHVTEKNEKDGQPSSRQYVQEMRVTNGHVVEMKQNKSR”, the protease stability score is -0.468.

“DEDANRKAEEFAQNLRENDEDRLQQLVDPNARLNVGEFSVHGRTELTHQLRRVTREMRVEVQIRDIRVQNGHAHLDIEVVIDHNGKPSSRVLRMVVDFRNGKIQNLDVRTDQ” came in with a protease stability score of 0.601. “DEEELKKHAHNLMRAMQTGDPDKVEEYFDPDAEYTVGDQTYRGREDMREWFEEVRRQVDHNQINDVRNSENHVNVDFVLNHNGTNHRVKFKAEIHNGRAKRASITTG” gave a protease stability score of -0.271. “DEERRDLAHRIFEAWKRNDPDTLRNLIDPNAKMVVGEDVLRGDEQIVKHVQDVHNRINMKIDIKSVRVEGDKVIVHAEVTANVNGRPVRIEVTFVIKNHNGKVKKIVIDVDPRDQRKMDS” had a protease stability score of -0.13.

Turning to “DEKKAKEAAHRLLEAMVTGDPRKLNENADEDVQVEYGDKSYTGREKLNEWAHEFQKRVDHVRIESIHQRGDTATVKVRVEHNGETDTFVLIVEAHNGRAKRIRQETR”, the protease stability score is 1.11. As to “DEELQENAEHFMDDLKTGNEDSIKQNADPNAHFQIGDKTFHGREDFVKHIKKQRQHARIQLDVKNIDVQGDHVTINANVIVNVDGRPQSADVTILIRYHNGRIHTVLYSFSEKDKKKMES”, the protease stability score was 0.872. The figure for “DEEQLKEYTKEMEHNDEEQFSRMMDKDARVIVGDKTFTGREDAATMLLLIRRRVDHIEIRKITIQGDHVVVHQVVQVNGKEAEFEREVHVKNGHIKEVHIQARDEDDERVLHQAMD” is 0.468; for “DDEAKEHVEDFIRALKDNNPDEVDEYIDKDAKVHVGDTIYHGREEVRRDVERKKRHLRFDYEDVKIEVHGEKVVAHMKVEYQHNGRPDKARVILDVRFHNGRVRSLHIQEQK” it is -0.095; for “DEEDLKKVVDQLIKAVVNGDVEKIVKYIDEDVEFKLGDTKYKGKEEAKKVVTKLVQVGAEVHVDHVRVKGDEAEVDTVWHIGNTEAHMTVKYVVRGDKVERVEVRWTEEVKKAIKAG” it is 1.46. As to “DEKHYKKVLKRVLDYFMKGNKEQVKKIAKPDVEFHAGKMKIEGTDHLAKYYEKLQRKGVKLEIKEQHVTGDTVEVKYELEVGGTKVTVKATLKVKDDKVDKAEAKNDDDYHKRVKKG”, the protease stability score was 0.117. With “DEDALRNWEQFIRNYKHGDETELQKLVDPNVHVRIGDREIHGREKLREHWRRQKEHARVDINVRSLEDQGSKVQVTFKMQYQVNGQPKHNSMRMEFTVRNGRIVEASYQFDPDEHRKLQS”, the protease stability score was 1.23.

Regarding “DQTDEAEKWMEHITRVLHHNDTDQMLELADENVKIDIGDKTYHGREQFSQLLRDIAERVDHFSQRIDSIRVNGDKVRIDFKNVLDHNGRKHSQQVVVEINRTNGQWRLKSLHKK”, the protease stability score was 0.151.

Regarding “DEDARRRVHEFFEAIENNDREKLKELADPNVQANYGDKQVRGREQLAEWVDKLHKELRVHFRLKSLDNRGDKIEIRMRVILDINGRPQTQDVTMEMRFHNGRIKHVQVHVDERQLKQKKK”, the protease stability score came to 0.942. Under “DHEDMEKLAKDLNKAIEQGDPDRMRDMADENVDAKIGDKVFHGDENVRKMIKSIRDHADHLRVKDWRVKGEKIVIDVHVNHNGKSAKLDLKAQAHNGTFTTLKIDPQFQRSMES” stands -0.234.

As to “DEEEAKRQMEEFAHGDPDKMVNNVDENADAVVGDRRFHGRKDIKEWAERMKKRIDTNKYEHVEQQGDKVDAIYNITVNGQELRFKLVIKIDNGRVEYVKVDVTDEENLKILQEIFS”, the protease stability score was determined as 0.121. Under “DTQEKLKHWWKHVQENIKTGDEDRLHEMVDPNASVQVGDKELHGREKIATTYVELMSRVDHVRIQITELEVHGNDFDLTFNYEADVNGRKEHDHYRVVLQEHNGQLRLVQMSEG” stands 0.747. Turning to “DEDQVQRVREMIKAWQHNDPEKLMQQVDPNVKARVGDKTLQGREQMSKDLDRRRKEARFVIRVQEVDKRENRVQVNVKMKVNHNGHPHSFSFILNVEVHGDHIHTIHIERDK”, the protease stability score is 0.356. The figure for “DHQDARKVRKNFEDNNFESFKSMFDENAEVRVGDKELHGKENIRDQIRKEKEQIDHVQYRSFHVQGEKVDLKYEFQVNGRHIDVRASAELKNGRIKTHSVEVTTEEDKKLLKEVLQ” is -0.271; for “DEEKLDKVMKMVRDALQKGDQEKAQKLVKPDGHFQVGDQELNGYDQVRKYYKKVKDLGAEAHVKKTDVRGNTFRLEYDARLKGVQVTIRLEVRVKDEKVDEARADMTEDYAKHVTKG” it is 0.53. Sequence “DDDARERVDELLEVEQTGNREDIKRLVDPNAKVQVGDDEYHGMEVYAETVVKKRKEINIELRFKDMQVHNGRANADVEAVYDHNGRPSRMRFVLHFVIRNGKFKEIRLREDR” yielded a protease stability score of 1.2. Under “DHTKEARQVRRFVHALETGDPDRAASQLDKNAKVTVGDKRVHGRENVRTLMQEFIREADHFRLRDMRDDGEKFNLLIEFEVNGKRLRMHIDIVISNGTMKVVRFDPNVVKRMEN” stands 0.144. The figure for “DEELKKVVDRMMKAITEGNPDKVRHLMDKDVKVDIGDKRIQGNEQNARDNEKSQNHLEESLDVKRVDNKGDKATVHLTVHVNHNGKPETFKLDIHVQAHNGKVKNMNFQKRP” is -0.076; for “DDEKARQQVREFIRAMETGDEDSMVQQLDENAHVHIGDHVWRGREQARNAFKEFVKQFDRIEVKRVEYRNGDVVIDAVANVNGVRVRIIFKIHIHNGRIKNLRIEYRDEEEKKQLDG” it is 1.99. The figure for “DNEEHKVLEELIRAIQEGNEKDIKRLIDPNARVNVGDKTYHGREQIVKWWFDLQQELEFEIDIKRWHVNNGQIRADIKYVRNNNGKPESFRADMQVTASNGKFKSVSVHETK” is 1.43. The sequence “DDRDEEKLQEQRKIHENNDEDRRKELVDPNVKFDVGDRHYHGRETNSKKFVDENREMRVEVDIKRVTNDEDHLRFEAHVVIRNNGQPDTKKVRLEQRLDGDKLKMERQEDKR” yielded a protease stability score of 0.276.

“DEKKDREAAQKAARAFVKGNKDKVKELGKEDVTAKFGDEEFRGVDQVTKAMEHWLKMGDQMQLREEKDEKNHVKVRTDQRVGGYEVTTEATYHAQGGRVDHAEDREPPEAQKLMQKG” gave a protease stability score of -0.258.

As to “DEHAARVFLELLKAAETGDEKRLKRLADPNARIQVGDKHVDGMDEATKKIVKTWEKSRIRFEIKSYDVDGEKVRVNMQMTNRDNGEPDSKNAHFTVEVRNGHIKHADLQHHG”, the protease stability score was -0.223. Under “DERNQKEVADKMYTAFRHGDPRKINKLADKDVTARYGDKVVSGRDDMVRQIDEIRKSIDHMSITSIEVHNGKADATLRFVVNGRDLQMKLVIVIHNGKVKHLSVQFRDDEQKKVLER” stands -0.174; under “DEEELERQAQELVDAWQTNDESKIRHLVDENARVQVGDTTWKGREKAEEQVQEFKKQVDRLRVISVRVHGENIVVHVEIVHNGKHFSLTIVIEMHNGKVKHISVDPKAVEIATK”, 0.497; under “DEDREKRFAKHVADVLRTGDSDRLQELADENVRMRIGDKTYKGRENFTKALEELRNRVDHIDIKSVKVHNGRISIDFVMRHNGREQTAVLIMHIHNGRIESQEVHSK”, 0.618.

“DERHIHELVKNMQTNNFEEIKKQLDENVRVVVGDTVYHGREQASKALEDMKRMADRIRYTRVDFKGNKVRIDVVMNINGHNLKMVITVVVQNGRIKELVFTARNDEVKTRLDHAIR” gave a protease stability score of 1.13. Under “DRKAEKLLEDLLDARRTNDEKKLQDLMDPNVKVDVGNKHYEGRERNAKSYAQEYKQMRLEIRVKSIHNNGNHVIQTFDADVRINGKPIRFRAQMMLHFHNGRVQHVYLRLDPSVEQHRRD” stands 0.218.
